Legend:
TRAIL-R2/DR5 (human) = TRAIL-R2/DR5 (human) (UniProt O14763); assay: cell-based or functional assay
TRAIL-R1/DR4 (human) = TRAIL-R1/DR4 (human) (UniProt O00220); assay: cell-based or functional assay
UniProt O00220, sequence (O00220 24-468): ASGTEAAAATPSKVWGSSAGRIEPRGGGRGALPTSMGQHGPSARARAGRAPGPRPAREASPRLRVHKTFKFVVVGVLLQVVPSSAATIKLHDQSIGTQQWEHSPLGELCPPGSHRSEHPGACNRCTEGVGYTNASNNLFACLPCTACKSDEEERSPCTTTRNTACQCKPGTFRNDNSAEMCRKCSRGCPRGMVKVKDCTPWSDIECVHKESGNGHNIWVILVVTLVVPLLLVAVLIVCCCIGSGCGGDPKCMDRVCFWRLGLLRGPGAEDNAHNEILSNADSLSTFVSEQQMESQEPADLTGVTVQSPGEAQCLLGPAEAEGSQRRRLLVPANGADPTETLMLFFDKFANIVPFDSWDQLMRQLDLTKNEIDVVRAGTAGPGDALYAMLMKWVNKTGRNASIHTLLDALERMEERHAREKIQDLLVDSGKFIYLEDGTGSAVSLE

UniProt O14763, sequence (O14763 56-440): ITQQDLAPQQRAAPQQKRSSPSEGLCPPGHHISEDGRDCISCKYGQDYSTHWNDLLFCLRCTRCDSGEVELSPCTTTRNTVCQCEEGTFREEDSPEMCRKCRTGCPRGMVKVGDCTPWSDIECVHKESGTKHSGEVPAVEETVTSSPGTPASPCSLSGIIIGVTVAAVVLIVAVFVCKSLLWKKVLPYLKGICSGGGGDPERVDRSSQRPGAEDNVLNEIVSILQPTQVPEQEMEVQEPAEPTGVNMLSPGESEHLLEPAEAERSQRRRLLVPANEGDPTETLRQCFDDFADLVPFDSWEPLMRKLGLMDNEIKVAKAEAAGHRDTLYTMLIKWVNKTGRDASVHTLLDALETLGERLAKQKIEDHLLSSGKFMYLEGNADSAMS

TRAIL (TNF-related apoptosis-inducing ligand)
fold increase in induced cell death (MTT, 3 h) of human primary HSCs treated at day 7 versus day 1 (TRAIL-R2/DR5 (human)): 4.5 fold
fold increase in induced cell death (MTT, 3 h) of human primary HSCs treated at day 14 versus day 1 (TRAIL-R2/DR5 (human)): 7.5 fold
fold increase in induced cell death (MTT, 3 h) of human primary PSCs from day 1 to day 14 (TRAIL-R2/DR5 (human)): 5.5 fold
fold increase in induced cell death (MTT, 3 h) of human primary HSCs treated at day 7 versus day 1 (TRAIL-R1/DR4 (human)): 4.5 fold
fold increase in induced cell death (MTT, 3 h) of human primary HSCs treated at day 14 versus day 1 (TRAIL-R1/DR4 (human)): 7.5 fold
fold increase in induced cell death (MTT, 3 h) of human primary PSCs from day 1 to day 14 (TRAIL-R1/DR4 (human)): 5.5 fold

— patent EP3145530B1
